Reference: US20100272719A1 (CHENGDU KANGHONG BIOTECHNOLOGIES, published 2010)

What was measured:
human VEGF165 [1] = biological target: T1, human VEGF165 (human, UniProt P15692-4 27-191); experiment: solution binding: human VEGF incubated 1 h at 37 C with dilutions of binder, free VEGF measured by ELISA kit
human VEGF165 [2] = biological target: T1, human VEGF165; experiment: comparison of affinity for VEGF, reference Avastin
human VEGF165 [3] = biological target: T1, human VEGF165; experiment: binding assay on purified fusion protein (quality testing)

T1 sequence (P15692 other isoform, or with tags, fused parts or gaps limits assumed): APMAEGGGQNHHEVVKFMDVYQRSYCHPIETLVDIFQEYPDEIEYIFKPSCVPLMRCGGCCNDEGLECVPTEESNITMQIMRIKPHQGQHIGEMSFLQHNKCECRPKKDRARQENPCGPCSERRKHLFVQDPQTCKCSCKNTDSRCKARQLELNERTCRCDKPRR

Row | Binder | IC50 (human VEGF165 [1]) | fold affinity against Avastin (human VEGF165 [2]) | IC50 (human VEGF165 [3])
1 | VEGF-TRAP (FP1′, FLTd2KDRd3-Fc) (Fc fusion, UniProt P17948 129-230, looked up, domain: 2nd Ig-like domain of FLT-1;domain: 3rd Ig-like domain of KDR; also called VEGF Trap (R1R2); not shown: human immunoglobulin Fc (IgFc)) SDTGRPFVEMYSEIPEIIHMTEGRELVIPCRVTSPNITVTLKKFPLDTLIPDGKRIIWDSRKGFIISNATYKEIGLLTCEATVNGHLYKTNYLTHRQTNTIIDVVLSPSHGIELSVGEKLVLNCTARTELNVGIDFNWEYPSSKHQHKKLVNRDLKTQSGSEMKKFLSTLTIDGVTRSDQGLYTCAASSGLMTKKNSTFVRVHEK | 0.03 nM |  | 
2 | FP3′ (FLTd2-KDRd3-KDRd4-Fc chimeric fusion protein) (Fc fusion) GRPFVEMYSEIPEIIHMTEGRELVIPCRVTSPNITVTLKKFPLDTLIPDGKRIIWDSRKGFIISNATYKEIGLLTCEATVNGHLYKTNYLTHRQTNTIIDVVLSPSHGIELSVGEKLVLNCTARTELNVGIDFNWEYPSSKHQHKKLVNRDLKTQSGSEMKKFLSTLTIDGVTRSDQGLYTCAASSGLMTKKNSTFVRVHEKPFVAFGSGMESLVEATVGERVRIPAKYLGYPPPEIKWYKNGIPLESNHTIKAGHVLTIMEVSERDTGNYTVILTNPISKEKQSHVVSLVVYVPP | 0.01 nM | 50 fold | ≤ 0.05 nM
